Results: article PMC2120307

Legend:
[1] = target: recombinant purified neutrophil adhesion inhibitor NIF (rNIF) of the hookworm Ancylostoma caninum (Ancylostoma caninum); test: ELISA
[2] = target: recombinant purified neutrophil adhesion inhibitor NIF (rNIF) of the hookworm Ancylostoma caninum (Ancylostoma caninum); test: flow cytometry on cells

- IC50 [1]: 1 nM
- IC50 [2]: 1 nM
Substance: recombinant CD11b A-domain (r11bA), wild type (domain or fragment)
